In patent US10766940 (GOVERNORS OF THE UNIVERSITY OF ALBERTA, dated 2020):
Positions of bridges follow the written chain, without caps; N, C: chain ends. No end group written: not given here.

How the values were obtained:
[1] = molecular target: amylin receptor in mouse brain (mouse, UniProt Q60755 42-533); experiment: cell-based or functional assay
[2] = molecular target: T1, AMY3 receptor (heterodimeric complex of the calcitonin receptor and RAMP3) (UniProt P30988 25-474; O60896 24-148); experiment: cell-based or functional assay
T1 sequence (looked up) 1: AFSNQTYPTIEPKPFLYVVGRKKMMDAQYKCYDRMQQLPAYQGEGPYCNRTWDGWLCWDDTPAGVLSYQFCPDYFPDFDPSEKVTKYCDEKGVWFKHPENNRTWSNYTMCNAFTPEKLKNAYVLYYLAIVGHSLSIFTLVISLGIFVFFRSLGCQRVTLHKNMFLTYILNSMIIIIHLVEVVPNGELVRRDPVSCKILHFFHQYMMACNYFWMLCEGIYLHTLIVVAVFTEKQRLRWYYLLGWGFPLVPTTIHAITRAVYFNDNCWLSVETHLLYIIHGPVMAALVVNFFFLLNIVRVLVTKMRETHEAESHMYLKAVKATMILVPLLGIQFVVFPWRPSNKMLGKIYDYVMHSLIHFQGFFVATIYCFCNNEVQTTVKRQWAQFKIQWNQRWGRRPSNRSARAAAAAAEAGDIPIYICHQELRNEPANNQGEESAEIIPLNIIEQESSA
T1 sequence (looked up) 2: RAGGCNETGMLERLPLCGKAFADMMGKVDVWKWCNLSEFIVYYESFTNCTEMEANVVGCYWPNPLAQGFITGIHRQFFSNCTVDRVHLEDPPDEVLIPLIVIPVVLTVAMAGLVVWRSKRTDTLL

[3] = molecular target: T1, AMY3 receptor (heterodimeric complex of …); experiment: flow cytometry, Cy5-labelled peptide 5 µM, AMY3-HEK cells; reference AC253
Method: (§1) d) For flow cytometry studies, AMY3-293 cells were used to determine cell binding and uptake and binding of Cy5-AC253, and Cy5-cAC253 peptides. Cell were plated at a density of 1.5 ×10^5 cells/well and cultured overnight in 12-well plates at 37° C. Cy5 labelled peptides (5 μM) were added and incubated for 1 hour at 37° C. in serum free media. The culture media was discarded, and cell monolayers were washed with PBS containing 2 mM EDTA and 0.5% BSA adjusted to pH 7.4 at 37° C. Cells were washed again with cold buffer and incubated with 0.25% trypsin to remove cell surface-associated fluorophores. Cells were dispersed in FACS solution (10% FBS in PBS) and analyzed using a FACSCanto II flow cytometer (BD Biosciences, USA) selecting a detection window between 720 and 840 nm. Fluorescence histograms and dot plots were generated using the data were processed with FLOWJO software (Tree Star, Inc, USA). At least 10,000 gated events per sample were analyzed. The experiment was repeated with different peptide concentration ranging from 0.5-10 μM, and mean fluorescence intensity of peptides was extrapolated. To further study the cell uptake mechanism, cells were preincubated with cytochalasin D (cytoD, […]) for 30 minutes, and the experiment was repeated as above. […]

[4] = molecular target: T1, AMY3 receptor (heterodimeric complex of …); experiment: flow cytometry, Cy5.5-labelled peptide 5 µM; wild type HEK293 against AMY3-HEK cells
[5] = molecular target: T1, AMY3 receptor (heterodimeric complex of …); experiment: flow cytometry, dose-dependent binding of Cy5-labelled peptide (0.5-10 µM) to AMY3-HEK cells
Method: as §1

[6] = molecular target: T2, AMY1 receptor (heterodimeric complex of the calcitonin receptor and RAMP1) (UniProt P30988 25-474; O60894 27-148); experiment: flow cytometry cell uptake, AMY1 transfected cells; reference other fragments
T2 construct: whole, on cells; also called amylin receptor subtype 1
T2 sequence (O60894 27-148, one chain of several): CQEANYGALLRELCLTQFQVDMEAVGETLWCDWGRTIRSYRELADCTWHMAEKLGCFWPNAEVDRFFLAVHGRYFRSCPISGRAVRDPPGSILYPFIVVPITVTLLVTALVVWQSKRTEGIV

Sequence of amylin receptor in mouse brain (Q60755 42-533): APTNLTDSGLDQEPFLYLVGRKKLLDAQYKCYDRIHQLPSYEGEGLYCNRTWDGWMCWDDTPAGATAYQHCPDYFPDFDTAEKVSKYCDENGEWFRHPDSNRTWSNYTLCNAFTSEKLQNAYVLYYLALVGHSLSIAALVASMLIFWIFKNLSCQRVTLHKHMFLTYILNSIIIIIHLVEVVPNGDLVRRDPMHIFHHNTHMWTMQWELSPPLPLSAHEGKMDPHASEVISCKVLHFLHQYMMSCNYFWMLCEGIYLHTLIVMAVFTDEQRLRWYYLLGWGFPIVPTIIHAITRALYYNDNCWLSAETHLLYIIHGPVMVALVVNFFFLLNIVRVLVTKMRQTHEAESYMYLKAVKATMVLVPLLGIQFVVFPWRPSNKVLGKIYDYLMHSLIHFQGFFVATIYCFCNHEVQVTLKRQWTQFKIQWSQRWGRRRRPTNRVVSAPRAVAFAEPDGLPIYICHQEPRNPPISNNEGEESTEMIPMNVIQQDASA

| Binder | reduction in brain fluorescence after ip injection of Cy5-cAC253 mixed with 5-fold excess of unlabeled cAC253 (in vivo competition, ex vivo NIRF imaging) [1] | IC50 for inhibition of hAmylin evoked cAMP increase in AMY3-HEK cells [2] | fold potency versus AC253 in inhibiting AMY3 receptor activity (cAMP) [2] | fold binding and uptake compared to AC253 [3] | fold decrease in binding and uptake in wild type HEK293 cells compared to AMY3-HEK cells [4] | Kd [5] | fold increase in specific binding compared to other fragments [6] |
| --- | --- | --- | --- | --- | --- | --- | --- |
| CLGRLSQELHRLQTYPRTNTGSNTYC-NH2 (disulfide 1-26; also: flanking Cys said to be D-Cys in one passage, AC253 with one cysteine added at each terminus, cyclized by a disulfide; cAMP assay used the unlabelled peptide; also called cAC253; cyclic AC253) [cyclized AC253] | 75% | ~300 nM | 3 fold | 3 fold | 10 fold | 1450 nM | – |
| Ac-LGRLSQELHRLQTYPRTNTGSNTY-NH2 (not fully specified; printed as Ac-LGRLSQELHRLQTYPRTNTGSNTY; also: labelled form for binding: Cy5/Cy5.5 on extra N-terminal beta-alanine spacer, Synthetic 24-residue peptide; cAMP assay used the unlabelled peptide; also called linear AC253; Cy5-AC253) [AC253] | – | ~850 nM | – | – | 10 fold | – | – |
| RLQTYPRTNTGS (not fully specified (N-terminus, C-terminus), 12-residue fragment of AC253) [peptide fragment R10 of AC253] | – | – | – | – | – | – | 3 fold |
